# Laboratory results as given in patent publication US6335019B1, “Methods for treating sensitivity to protein allergen using peptides which include a T cell epitope recognized by a T cell receptor specific for the protein allergen” (Immulogic Pharmaceutical Corp., priority 1989, dated 2002).
# Assays:
# [1] = system: human IgE (ragweed allergic patient sera); experiment: SDS-PAGE Western blot (and ELISA) of ragweed allergic patient IgE binding to pollen, affinity purified and recombinant Amb a I / Amb a II; design: key to IgE binding, summarized Western blot data: −: no signal over background; +−: barely discernable over background; +: clearly positive; ++: strongly positive; +++: highly positive; details: for Extent of specific IgE binding relative to Amb a IB or Amb a II (in words): patient #295, FIG. 20; for Human IgE binding (in words): Western blot (FIG. 17) and/or ELISA, ragweed allergic patient IgE
# Experimental: As represented in FIG. 1A, a selected monoclonal antibody (designated 4B5/B7) which recognizes an Amb a I preparation unsubjected to denaturing conditions was used to affinity purify from pollen extract a single protein, which is referred to as affinity purified Amb a I. This was carried out, using known techniques, by producing the desired monoclonal antibody, isolating it in large quantities from ascites and immobilizing it on Sepharose (Pharmacia). Aqueous pollen extract was passed over the monoclonal antibody-containing column and a protein species was eluted.
# Furthermore, full-length and truncated cDNAs encoding several members of the Amb a I multigene family, as well as Amb a II, were cloned in-frame into the expression vector pTrc99 (Amann et al. Gene, 69:301-315, (1988)) and transformed into the JM109 host. Expression of recombinant Amb a I and Amb a II protein was induced by 1 mM isopropyl-β-D-thiogalactopyranoside, cells were harvested, lysozyme treated, sonicated and insoluble inclusion bodies recovered by a low speed centrifugation. Recombinant Amb a I and Amb a II protein present in the recovered pellet was solubilized in buffer containing 8M urea, 50 mM Tris HC1 pH8.0, 50 mM NaCl, 1 mM EDTA, 1 mM dithiothreitol, 1 mM phenylmethylsulfonyl fluoride. After solubilization, the crude urea lysate was dialyzed at 4° C. against PBS. […] This antigenic cross-reactivity is consistent with the observed sequence homology of the cDNAs (see FIG. 16).
# Comparison of human IgE binding to recombinant Amb a I and Amb a II proteins with anti-peptide and monoclonal anti-Amb a I antibodies have provided data consistent with the conclusion that the N-terminal portion (historically referred to as the β-region) of Amb a IA includes the major IgE eptiope(s).
# Affinity purified Amb a I was electrophoresed, Western transferred (Towbin et al., Proc. Natl. Acad. Sci. USA, 76:4350 (1979)) and probed with a variety of antibodies, including IgE from an allergic patient (FIG. 17). In pollen extract Amb a I is not only present as an intact 38-KD species, but also characterized by its component 26KD alpha chains and 12-KD beta chains which are formed by enzymatic cleavage. The intact 38-KD species and the alpha chain are clearly detected using rabbit anti-Amb a I, polyclonal affinity purified anti-RAE 16 and monoclonal anti-Amb a I JBIE3-4 (FIG. 17); RAE 16 peptide has the sequence RTDKDLLENGAIC derived from amino-acids […] of Amb a IB, FIG. 16). Affinity purified Amb a I (partial sequence presented in Table 1) as well as chromatographically purified Amb a II (partial sequence presented in Table 2) are bound on Western blots by these antibodies as well as by patient IgE (FIG. 17). The goat anti-Amb a I polyclonal antibody also binds multiple Amb a I and Amb a II species on a two dimensional Western blot of pollen extract (FIG. 18). The Western blot was performed as outlined below. […]
# [2] = system: T cells from patients allergic to ragweed; experiment: T cell proliferation of ragweed allergic patient T cells to ragweed proteins and recombinant lysates (tritiated thymidine); type: cell-based, human; details: for T cell recognition and proliferation (in words): T cells previously stimulated with mixed ragweed pollen extract, summary of Table 4
# Text: T cells from patients allergic to ragweed, previously stimulated with a mixed ragweed pollen extract, can recognize and proliferate in response to pollen extract, ragweed skin test reagent (RWST), affinity purified Amb a I protein and crude bacterial lysates containing recombinant Amb a I gene products IA, IB and IC (Table 4). […] The use of crude bacterial lysates as antigens precludes a firm conclusion form the negative responses, since the relative levels of recombinant proteins in lysate have not been determined.
# Peripheral blood mononuclear cells (PBMC) were purified from 60 ml of heparinized blood from ragweed-allergic patients. PBMC were subsequently treated as described below, although in individual cases, the length of time of cultivation with IL-2 and IL-4 and the specific ragweed proteins and peptides used for stimulation varied. As an example, ten ml of patient 222 PBMC at 10^6/ml were cultured at 37° C. for 7 days in the presence of 20 micrograms aqueous ragweed pollen extract/ml RPMI-1640 supplemented with 5% pooled human AB serum. Viable cells were purified by Ficoll-Hypaque centrifugation and cultured for three weeks at 5 units recombinant human IL-2/ml and 5 units recombinant human IL-4/ml. The resting T cells were then restimulated (secondary) with 20 micrograms aqueous ragweed pollen extract/ml at a density of 2×10^5 cells/ml in the presence of X-irradiated (3500 RADS) autologous PBMC (5×10^5/ml) for three days, purified by Ficoll-Hypaque centrifugation and grown in 5 units IL-2/ml and 5 units IL-4/ml for two weeks. For assay, 2×10^4 resting secondary T cells were restimulated (tertiary) in the presence of 5×10^4 X-irradiated (3500 RADS) autologous PBMC or 2×10^4 autologous Epstein-Barr virus-transformed B cells (20,000 RADS) with various concentrations of allergen or their fragments in a volume of 200 microliters in 96-well round bottom assay plates for 3 days. Each well then received 1 microCurie tritiated (methyl) thymidine for 16 hours. The counts incorporated were collected onto glass fiber filters and processed for liquid scintillation counting. […] Antigens used: IPC aqueous pollen extract (pollen), Hollister-Stier ragweed skin test extract (RWST), ALK cat epithelium skin test extract (CST), affinity 4B5/B7 antibody purified (dialyzed) Amb a I (B7), and chromatographically purified Amb a I and (Amb a I). Medium only control is shown as a line with no symbol. Alternatively, PBMC were sometimes carried only into a secondary assay (as outlined above for a tertiary assay) with 20 micrograms aqueous pollen extract 7 days, followed by culture in 5 units IL-2/ml and 5 units IL-4/ml for 2-3 weeks. […] Secondary and tertiary assays of a panel of ragweed allergic patients were performed using synthetic peptides derived from the sequences of various ragweed pollen proteins. […] Another four peptides (RAE15.6, RAE3.D, RAE28.1, RAE26.15) which are also derived from the sequence of the same three cDNA's could stimulate 35 to 58% of the patients' T cells. One peptide (RAE4) which is derived from the cDNA of IPC Clone 5 could also stimulate 25% of the patients' T cells. […] By this method it is possible to identify novel therapeutic and diagnostics entities for use in the treatment and the diagnosis of ragweed allergy.
# [3] = patient 151 2° (secondary assay)
# [4] = patient 222 2° (secondary assay)
# [5] = patient 274 2° (secondary assay)
# [6] = patient 296 2° (secondary assay)
# [7] = patient 314 2° (secondary assay)
# [8] = patient 316 2° (secondary assay)
# [9] = patient 319 2° (secondary assay)
# [10] = patient 321 2° (secondary assay)
molecule,measurement,setting,value
"Amb a IA: full-length recombinant Amb a IA, amino acid 10-398, E. coli expressed, used as crude bacterial lysate (protein) LYFTLALVTLLQPVRSAEDLQEILPVNETRRLTTSGAYNIIDGCWRGKADWAENRKALADCAQGFGKGTVGGKDGDIYTVTSELDDDVANPKEGTLRFGAAQNRPLWIIFERDMVIRLDKEMVVNSDKTIDGRGAKVEIINAGFTLNGVKNVIIHNINMHDVKVNPGGLIKSNDGPAAPRAGSDGDAISISGSSQIWIDHCSLSKSVDGLVDAKLGTTRLTVSNSLFTQHQFVLLFGAGDENIEDRGMLATVAFNTFTDNVDQRMPRCRHGFFQVVNNNYDKWGSYAIGGSASPTILSQGNRFCAPDERSKKNVLGRHGEAAAESMKWNWRTNKDVLENGAIFVASGVDPVLTPEQSAGMIPAEPGESALSLTSSAGVLSCQPGAPC","IgE binding, summarized Western blot data",[1]; patient 151,+
same,"IgE binding, summarized Western blot data",[1]; patient 222,+−
same,"IgE binding, summarized Western blot data",[1]; patient 291,+++
same,"IgE binding, summarized Western blot data",[1]; patient 295,+++
same,"IgE binding, summarized Western blot data",[1]; patient 296,++
same,Extent of specific IgE binding relative to Amb a IB or Amb a II (in words),[1],far greater extent
same,T cell recognition and proliferation (in words),[2],proliferate
same,Stimulatory response of human T cells (proliferation compared to medium control),[2]; [3],(+) (2 fold)
same,Stimulatory response of human T cells (proliferation compared to medium control),[2]; [4],++ (4-10 fold)
"Amb a IC: E. coli expressed recombinant Amb a IC, used as crude bacterial lysate (protein) LYFTLALVALLQPVRSAEGVGEILPSVNETRSLQACEALNIIDKCWRGKADWENNRQALADCAQGFAKGTYGGKWGDVYTVTSNLDDDVANPKEGTLRFAAAQNRPLWIIFKNDMVINLNQELVVNSDKTIDGRGVKVEIINGGLTLMNVKNIIIHNINIHDVKVLPGGMIKSNDGPPILRQASDGDTINVAGSSQIWIDHCSLSKSFDGLVDVTLGSTHVTISNCKFTQQSKAILLGADDTHVQDKGMLATVAFNMFTDNVDQRMPRCRFGFFQVVNNNYDRWGTYAIGGSSAPTILCQGNRFLAPDDQIKKNVLARTGTGAAESMAWNWRSDKDLLENGAIFVTSGSDPVLTPVQSAGMIPAEPGEAAIKLTSSAGVFSCRPGAPC","IgE binding, summarized Western blot data",[1]; patient 151,+
same,"IgE binding, summarized Western blot data",[1]; patient 222,+−
same,"IgE binding, summarized Western blot data",[1]; patient 291,+++
same,"IgE binding, summarized Western blot data",[1]; patient 295,+++
same,"IgE binding, summarized Western blot data",[1]; patient 296,++
same,Extent of specific IgE binding relative to Amb a IB or Amb a II (in words),[1],far greater extent
same,T cell recognition and proliferation (in words),[2],proliferate
same,Stimulatory response of human T cells (proliferation compared to medium control),[2]; [3],+ (2-4 fold)
same,Stimulatory response of human T cells (proliferation compared to medium control),[2]; [4],++ (4-10 fold)
same,Stimulatory response of human T cells (proliferation compared to medium control),[2]; [5],++ (4-10 fold)
same,Stimulatory response of human T cells (proliferation compared to medium control),[2]; patient 295 2° (secondary assay),+ (2-4 fold)
same,Stimulatory response of human T cells (proliferation compared to medium control),[2]; [6],+++ (>10 fold)
same,Stimulatory response of human T cells (proliferation compared to medium control),[2]; [7],+++ (>10 fold)
same,Stimulatory response of human T cells (proliferation compared to medium control),[2]; [8],+++ (>10 fold)
same,Stimulatory response of human T cells (proliferation compared to medium control),[2]; [9],++ (4-10 fold)
same,Stimulatory response of human T cells (proliferation compared to medium control),[2]; [10],+ (2-4 fold)
affinity purified Amb a I: protein affinity purified from pollen extract with monoclonal antibody 4B5/B7 (protein) AEDLQEILPVNETRRLTTSGAYNIIDGCWRGKADWAENRKALADCAQGFGKGTVGGKDGDIYTVTSELDDDVANPKEGTLRFGAAQNRPLWIIFERDMVIRLDKEMVVNSDKTIDGRGAKVEIINAGFTLNGVKNVIIHNINMHDVKVNPGGLIKSNDGPAAPRAGSDGDAISISGSSQIWIDHCSLSKSVDGLVDAKLGTTRLTVSNSLFTQHQFVLLFGAGDENIEDRGMLATVAFNTFTDNVDQRMPRCRHGFFQVVNNNYDKWGSYAIGGSASPTILSQGNRFCAPDERSKKNVLGRHGEAAAESMKWNWRTNKDVLENGAIFVASGVDPVLTPEQSAGMIPAEPGESALSLTSSAGVLSCQPGAPC,Human IgE binding (in words),[1],bind human IgE
same,Human IgE binding (in words),[1]; listed as 4B5/B7 affinity purified Amb a I,readily detectable IgE reactivity
same,Human IgE binding (in words),[1]; listed as Affinity purified Amb a I,bound
same,T cell recognition and proliferation (in words),[2],proliferate
same,T cell response in secondary assay (in words),"[2]; one ragweed allergic patient, FIG. 21",responded
same,Stimulatory response of human T cells (proliferation compared to medium control),[2]; [3],(+) (2 fold)
same,Stimulatory response of human T cells (proliferation compared to medium control),[2]; [4],+++ (>10 fold)
same,Stimulatory response of human T cells (proliferation compared to medium control),[2]; [5],++ (4-10 fold)
same,Stimulatory response of human T cells (proliferation compared to medium control),[2]; [6],+++ (>10 fold)
same,Stimulatory response of human T cells (proliferation compared to medium control),[2]; [7],+++ (>10 fold)
same,Stimulatory response of human T cells (proliferation compared to medium control),[2]; [8],+++ (>10 fold)
same,Stimulatory response of human T cells (proliferation compared to medium control),[2]; [9],++ (4-10 fold)
same,Stimulatory response of human T cells (proliferation compared to medium control),[2]; patient 320 2° (secondary assay),+++ (>10 fold)
same,Stimulatory response of human T cells (proliferation compared to medium control),[2]; [10],+ (2-4 fold)
